From US11814689B2 (priority 2021, dated 2023)

Key:
[1] = system: ssRNA; type: biochemical; conditions: 425 nM ssRNA, 200 nM nuclease, cyclic oligoadenylates
[2] = system: plasmid DNA; type: biochemical
[3] = system: plasmid DNA
[4] = system: ssDNA; type: biochemical; conditions: for ssDNA cleavage activity: 425 nM ssDNA, 200 nM nuclease, cyclic oligoadenylates
[5] = system: 2 Kb DNA reporter labelled biotin and digoxigenin; type: biochemical
[6] = system: fluorescent ssRNA reporter; type: biochemical
[7] = system: SARS-CoV-2 RNA; type: biochemical
[8] = system: cA3 and cA4; type: biochemical
[9] = system: SARS-CoV-2 N gene RNA; type: biochemical; conditions: IVT SARS-CoV-2 N gene fragment spiked in total RNA of negative swab, no RNA capture
[10] = system: library of 46 synthetic RNAs; type: biochemical
[11] = system: fluorescent dsDNA reporter; type: biochemical

B1: TtCan1: Can1 from Thermus thermophilus, NCBI WP_011229147.1, SEQ ID NO. 61 (protein, listed as Thermus thermophilus)
chain: MQAPVYLCLLGNDPAPAYLGLKVVEREAGRVAKAVFYSFPAWNEEYGKKRQAFFRLLSEKGVLYEERPLEKGLEEAEAREVWVNLTGGAKYWAVRFLGHWRRPGARVFLVEGHRALEAPRALFLWPREEERSLEAEALTLEEYARLYLEPLGEAWERVSPPGAFPPGAQAARLPGREGGVFVVHRGLPYWYWVRPHLGGEAKDMSRKALSAFSGEAKRLGGQLCLPVVPYHKAHLRSRHPKERENVFARWRAWAREYGVFLVDPGRPLEEEVASLIKGKASKKALPLPQEGPLLLALVSEQAVPLYAAYLHAGPREVYLLTTPEMESRLRWAEAFFRGKGVRVHRSFLSGPWALREVRDLLAPVVEEALRRGHPVHANLNSGTTAMALGLYLALRDGARAHYLDGDRLLLLDGGEAEVPWEEGRPEDLLALRGYRFEEEYPDARPDPGLLALAEEILRRWDEVQTSWEASPLVRRFLKFWKKRFGQAFPPKRLSRLKGLPLEYAVYSHLNAHLAPKGGQARMGGHLVPLGGNEALAPQSTEVDGVFFHRGALWFVECKPTDEGLRERAPIMAELVRSVGGVEARGLMVARRWRGAPPPASPNLVYMALEGGEGVGVYRFPEELEKALSRNPAPRRG
For B1, the ssRNA cleavage activity [1] was “cA4-dependent single-stranded RNase”, the “plasmid DNA cleavage with cA4” value [2] was “comparable to the background activity” and the “size of plasmid DNA degradation fragments” value [2] was roughly 100 bp. The “DNA sequence cleavage preference” value [3] was “non-sequence specific”, the ssDNA cleavage activity [4] was “does not cleave ssDNA” and the “lateral flow result with cA3” value [5] was “positive result”. For the same molecule, the “lateral flow result with cA4” value [5] was “negative result” and the “RNA reporter cleavage compared with AaCan2” value [6] was “requires higher concentrations of cA4 and produces less fluorescent signal”.

B2: AaCan2: Can2 from Archaeoglobi archaeon JdFR-42, JGI 2730024700, SEQ ID NO. 59 (protein)
chain: MSHIHVCLVSDQAIPNLTTALQFNPDTTVLLSTNEMKDKAKRLETVLKNKGLKVKTLKISAYDINDVITVSESLLNDCKGCKVSLNITGGTKIGTLGTFQVFYTASKPIFYVNTKDNEIIKLYPEKEQQKYPIEISISIKDYLAVYGFNVKSYVKDDSYIYKRKKVTDYLANLVIHRPNIIGEINYKLQNFEEKSYPLKINITKNKQVIKLYDILKDSGLVKIRNKSTIEIPDVETAKYLNGIWFEEYVYMMAKSLGADEVKLNVKGVWDTVGKHPPTNEFDILISKGNRLFYISCKTANPDRKIDDTDETIGKEYLYELDSISDSALGLFGKRMLASARAIKNDYVRKRAEILKIDIADGQNIATLKGKLQQWLSK
modifications: Archaeoglobi archaeon
In the case of B2, the “SARS-CoV-2 RNA concentration detected directly in swabs” value ([7]; RNA capture with AaCan2 readout, no RNA extraction or pre-amplification) is reported as 5×10^4 copies/μL, the “Ct of unprocessed swab samples detected” value ([7]; no RNA purification, lysis buffer 0.05% Triton X-100 and 1 mM EGTA, AaCan2 readout) is reported as greater than 21.2 and the “loss of sensitivity compared to detection using purified RNA” value ([7]; unprocessed swab vs purified RNA) is reported as roughly 5 fold. For the same molecule, the “ring-nuclease activity on cyclic nucleotide activator” value [8] was “binds and preserves the cyclic nucleotide”, the ssRNA cleavage activity [1] was “ssRNase when activated with cA4” and the “dsDNase activity, activator and metal dependence” value [2] was “Mn^2+- and cA3-dependent dsDNase”. The “target RNA concentration detected by TtCsm assay coupled with the nuclease” value [9] was 10^5 copies/μL, the ssDNA cleavage activity [4] was “Reproducible cleavage of ssDNA is also detectable” and the “cA4 concentration required for robust ssDNA cleavage” value ([4]; Mn^2+-specific) was 45 nM. The “ssRNA sequence cleavage preference” value [10] was “ACGACG”, the “cA4 concentration giving a similar fluorescent signal” value [6] was 0.5 nM and the “cA4 range in which rate of fluorescent signal is proportional to activator” value [6] was 1 to 10 nM. For the same molecule, the “fold less cA4 needed than TtCsm6 for similar fluorescent signal” value [6] was 20 fold.

B3: CtNucC: NucC from Clostridium tepidum, NCBI WP_195923598.1, SEQ ID NO. 55 (protein, listed as Clostridium tepidum)
chain: MGQIDIKSLFYSLQTQMCAKLSTNRQHIQHPGIKGDSSELNWIEWLKTYLPKRYSVDKAFIIDCDGNMSDQIDVVIYDQQYSPFVFNQDNAYYIPAESVYAIFEVKQEINKENIIYAGDKTKSVRSLKRTSTAIPHAGGYYAPKPHNKILSGILTLSSVWNPPLGKSFEEAIYSLEDESKLDIGCILAEGSFLADYKNDVLMKSTEEESLIFFFLKLLIELQSLGTTPAIDINCYGRALDSI
With B3 the “dsDNase activity among three thermophilic NucC orthologs” value [2] was “highest dsDNase activity”, the “size of plasmid DNA digestion fragments” value [2] was 300-400 bp and the “target RNA concentration detected by TtCsm assay coupled with the nuclease” value [9] was 10^7 copies/μL. The “cA3 sensitivity relative to AaCan2” value [11] was 100 fold, the “cA3 sensitivity relative to TtCan1” value [11] was 10 fold and the “lowest concentration of cA3 detected” value [11] was 0.5 nM.
